Source: publication PMC7784689, “Structural mechanism of phospholipids translocation by MlaFEDB complex” (Cell Research, 2020)

B1: MlaE (natural protein, E. coli K-12, UniProt P64606 1-260, looked up)
chain: MLLNALASLGHKGIKTLRTFGRAGLMLFNALVGKPEFRKHAPLLVRQLYNVGVLSMLIIVVSGVFIGMVLGLQGYLVLTTYSAETSLGMLVALSLLRELGPVVAALLFAGRAGSALTAEIGLMRATEQLSSMEMMAVDPLRRVISPRFWAGVISLPLLTVIFVAVGIWGGSLVGVSWKGIDSGFFWSAMQNAVDWRMDLVNCLIKSVVFAITVTWISLFNGYDAIPTSAGISRATTRTVVHSSLAVLGLDFVLTALMFGN
notes: MlaE, the transmembrane (permease) subunit of the MlaFEDB ABC transporter, E. coli K-12; expressed from the full mlaFEDCB operon amplified from genomic DNA; Homodimer within the 2:2:6:2 MlaFEDB complex; also called TMD protein MlaE

Tests used:
[1] = target: the molecule itself; assay: cryo-EM structure; nucleotide-free MlaFEDB in POPG nanodisc (MSP1D1), 4 mg/mL, 25 mM Tris pH 7.8, 150 mM NaCl; 2.9 Å
MlaE = target: B1; assay: as above; details: both partners purified
[2] = target: the molecule itself; assay: cryo-EM structure; MlaFEQEDB (MlaF E170Q) in nanodisc, incubated with 2 mM ATP and 2 mM MgCl2 for 30 min at room temperature; two conformations, EQ_tall (4.3 Å) and EQ_close (3.7 Å)

Binder	stoichiometry N [1]	further results
B1	2	–
MlaD (natural protein, E. coli K-12, UniProt P64604 1-183, looked up, expressed from the full mlaFEDCB operon amplified from genomic DNA; Homo-hexamer within the 2:2:6:2 MlaFEDB complex) MQTKKNEIWVGIFLLAALLAALFVCLKAANVTSIRTEPTYTLYATFDNIGGLKARSPVSIGGVVVGRVADITLDPKTYLPRVTLEIEQRYNHIPDTSSLSIRTSGLLGEQYLALNVGFEDPELGTAILKDGDTIQDTKSAMVLEDLIGQFLYGSKGDDNKNSGDAPAAAPGNNETTEPVGTTK	–	stoichiometry N (MlaE): 3
MlaF (natural protein, E. coli K-12, UniProt P63386 1-269, looked up, expressed from the full mlaFEDCB operon amplified from genomic DNA; Homodimer within the 2:2:6:2 MlaFEDB complex; also called NBD protein MlaF) MEQSVANLVDMRDVSFTRGNRCIFDNISLTVPRGKITAIMGPSGIGKTTLLRLIGGQIAPDHGEILFDGENIPAMSRSRLYTVRKRMSMLFQSGALFTDMNVFDNVAYPLREHTQLPAPLLHSTVMMKLEAVGLRGAAKLMPSELSGGMARRAALARAIALEPDLIMFDEPFVGQDPITMGVLVKLISELNSALGVTCVVVSHDVPEVLSIADHAWILADKKIVAHGSAQALQANPDPRVRQFLDGIADGPVPFRYPAGDYHADLLPGS	2	–
MlaF E170Q (natural protein, E. coli K-12, UniProt P63386 1-269, looked up, MlaF, E. coli K-12, with the catalytic glutamate of Walker B changed to glutamine; expressed from the full mlaFEDCB operon; PDB 7CGE holds the wild-type parent; also called MlaFEQ; EQ mutant; source: E. coli C43(DE3), co-expressed from mutated pET20b-mlaFEDCB, purified as MlaFEQEDB, in nanodisc) MEQSVANLVDMRDVSFTRGNRCIFDNISLTVPRGKITAIMGPSGIGKTTLLRLIGGQIAPDHGEILFDGENIPAMSRSRLYTVRKRMSMLFQSGALFTDMNVFDNVAYPLREHTQLPAPLLHSTVMMKLEAVGLRGAAKLMPSELSGGMARRAALARAIALEPDLIMFDQPFVGQDPITMGVLVKLISELNSALGVTCVVVSHDVPEVLSIADHAWILADKKIVAHGSAQALQANPDPRVRQFLDGIADGPVPFRYPAGDYHADLLPGS	–	stoichiometry N [2]: 2
